Test results: patent US20170224836A1 (Novartis, published 2017)
Like-named read-outs stand apart in the source and are kept apart here.

T1: human CDH6 on cells (human, UniProt P55285 54-790)
T1 sequence: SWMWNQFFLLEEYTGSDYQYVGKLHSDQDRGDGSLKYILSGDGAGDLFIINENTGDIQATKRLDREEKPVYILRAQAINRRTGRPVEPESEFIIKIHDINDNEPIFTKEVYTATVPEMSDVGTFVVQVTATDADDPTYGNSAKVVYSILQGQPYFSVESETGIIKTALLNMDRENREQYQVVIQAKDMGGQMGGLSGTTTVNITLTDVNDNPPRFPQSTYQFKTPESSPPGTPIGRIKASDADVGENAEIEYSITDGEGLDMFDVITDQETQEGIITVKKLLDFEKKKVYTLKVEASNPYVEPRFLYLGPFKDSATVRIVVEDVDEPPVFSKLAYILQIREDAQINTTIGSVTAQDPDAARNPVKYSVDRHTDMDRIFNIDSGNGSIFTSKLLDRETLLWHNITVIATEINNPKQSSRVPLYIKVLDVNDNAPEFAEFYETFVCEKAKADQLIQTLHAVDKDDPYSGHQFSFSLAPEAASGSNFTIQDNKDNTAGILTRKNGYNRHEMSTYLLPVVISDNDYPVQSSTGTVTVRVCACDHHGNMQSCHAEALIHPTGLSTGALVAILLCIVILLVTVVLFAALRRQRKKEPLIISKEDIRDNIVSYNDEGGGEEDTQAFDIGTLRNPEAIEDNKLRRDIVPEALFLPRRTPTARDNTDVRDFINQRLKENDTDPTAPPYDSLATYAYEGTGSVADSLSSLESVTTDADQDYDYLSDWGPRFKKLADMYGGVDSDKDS

T2: hCDH6aa54-615 APPavi (human, UniProt P55285 54-615)
T2 sequence: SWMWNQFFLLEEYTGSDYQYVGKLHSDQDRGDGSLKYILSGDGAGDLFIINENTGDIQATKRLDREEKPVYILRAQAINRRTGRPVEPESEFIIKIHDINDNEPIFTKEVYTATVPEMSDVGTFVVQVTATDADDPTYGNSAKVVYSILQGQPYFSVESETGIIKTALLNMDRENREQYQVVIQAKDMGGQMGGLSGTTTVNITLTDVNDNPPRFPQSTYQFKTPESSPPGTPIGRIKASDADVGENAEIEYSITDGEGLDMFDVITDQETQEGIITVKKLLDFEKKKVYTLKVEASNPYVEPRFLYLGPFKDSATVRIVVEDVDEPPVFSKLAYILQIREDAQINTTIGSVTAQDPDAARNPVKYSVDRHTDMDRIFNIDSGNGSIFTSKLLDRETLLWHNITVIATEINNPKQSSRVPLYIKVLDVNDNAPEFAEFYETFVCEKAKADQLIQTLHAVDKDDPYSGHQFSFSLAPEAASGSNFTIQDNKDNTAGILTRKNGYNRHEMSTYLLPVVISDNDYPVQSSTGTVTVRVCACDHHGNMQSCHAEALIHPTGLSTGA

B1: NOV0718-SMCC-DM1 (antibody, human IgG1, lambda, V domains shown)
VH: QVQLVESGGGLVKPGGSLRLSCAASGFTFNSYALHWVRQAPGKGLEWVGRIKSKTNGGTTDYAAPVKGRFTISRDDSKNTLYLQMNSLKTEDTAVYYCARVDATYSYSGYYYPMDYWGQGTLVTVSS
VL: DIELTQPPSVSVSPGQTASITCSGDKIPTYTVHWYQQKPGQAPVLVIYDDNKRPSGIPERFSGSNSGNTATLTISGTQAEDEADYYCQSTASGTVVFGGGTKLTVLG
modifications: SMCC-DM1 on primary amines, sites not stated
B2: NOV0720-SMCC-DM1 (antibody, human IgG1, lambda, V domains shown)
VH: QVQLQQSGPGLVKPSQTLSLTCAISGDSVSSNSAGWNWIRQSPSRGLEWLGRIYYRSKWYNDYAVSVKSRITINPDTSKNQFSLQLNSVTPEDTAVYYCAREKYTVSFYDFFDYWGQGTLVTVSS
VL: DIELTQPPSVSVSPGQTASITCSGDNIGSMTAHWYQQKPGQAPVLVIYDKNERPSGIPERFSGSNSGNTATLTISGTQAEDEADYYCQSWDDSYNSVVFGGGTKLTVLG
modifications: SMCC-DM1 on primary amines, sites not stated
B3: NOV0710-SPDB-DM4 (antibody, human IgG1, kappa, V domains shown)
VH: QVQLLESGGGLVQPGGSLRLSCAASGFTFSSYAMSWVRQAPGKGLEWVSVIRSSGSSTYYADSVKGRFTISRDNSKNTLYLQMNSLRAEDTAVYYCARGGGYFDYWGQGTLVTVSS
VL: DIQMTQSPSSLSASVGDRVTITCRASQSISLWLNWYQQKPGKAPKLLIYAASTLQSGVPSRFSGSGSGTDFTLTISSLQPEDFATYYCQQYYTSPYTFGQGTKVEIKR
modifications: SPDB-DM4 on primary amines, sites not stated
B4: NOV1127 (antibody, human IgG1, kappa, V domains shown)
VH: QVQLQQSGPGLVKPSQTLSLTCAISGDSVSSQSAAWNWIRQSPSRGLEWLGRIYYRSKWYNDYAVSVKSRITINPDTSKNQFSLQLNSVTPEDTAVYYCARERSYRDYFDYWGQGTLVTVSS
VL: DIQMTQSPSSLSASVGDRVTITCRASQGIFTYLNWYQQKPGKAPKLLIYAASTLQSGVPSRFSGSGSGTDFTLTISSLQPEDFATYYCQQYYSTSLTFGQGTKVEIKR
B5: NOV1126 (antibody, human IgG1, lambda, V domains shown)
VH: EVQLLESGGGLVQPGGSLRLSCAASGFTFSDHAIDWVRQAPGKGLEWVSVIAGSGSITYYADSVKGRFTISRDNSKNTLYLQMNSLRAEDTAVYYCARDTGVYREYMDVWGQGTLVTVSS
VL: SYELTQPLSVSVALGQTARITCSGDAIGTKFAHWYQQKPGQAPVLVIYYDHERPSGIPERFSGSNSGNTATLTISRAQAGDEADYYCYSRASSNLVFGGGTKLTVLG
B6: NOV0712-SMCC-DM1 (antibody, human IgG1, kappa, V domains shown)
VH: QVQLLESGGGLVQPGGSLRLSCAASGFTFSSHGMHWVRQAPGKGLEWVSVISGSGSNTGYADSVKGRFTISRDNSKNTLYLQMNSLRAEDTAVYYCARQWGSYAFDSWGQGTLVTVSS
VL: DIQMTQSPSSLSASVGDRVTITCRASQSISSYLNWYQQKPGKAPKLLIYAVSTLQSGVPSRFSGSGSGTDFTLTISSLQPEDFATYYCQQSGTFPPTTFGQGTKVEIKR
modifications: SMCC-DM1 on primary amines, sites not stated
B7: NOV0712-SPDB-DM4 (antibody, human IgG1, kappa, V domains shown)
VH: QVQLLESGGGLVQPGGSLRLSCAASGFTFSSHGMHWVRQAPGKGLEWVSVISGSGSNTGYADSVKGRFTISRDNSKNTLYLQMNSLRAEDTAVYYCARQWGSYAFDSWGQGTLVTVSS
VL: DIQMTQSPSSLSASVGDRVTITCRASQSISSYLNWYQQKPGKAPKLLIYAVSTLQSGVPSRFSGSGSGTDFTLTISSLQPEDFATYYCQQSGTFPPTTFGQGTKVEIKR
modifications: SPDB-DM4 on primary amines, sites not stated
B8: NOV0719-SMCC-DM1 (antibody, human IgG1, kappa, V domains shown)
VH: QVQLLESGGGLVQPGGSLRLSCAASGFTFSSHWVHWVRQAPGKGLEWVSVISYMGSSTYYADSVKGRFTISRDNSKNTLYLQMNSLRAEDTAVYYCARGSYDMAFDVWGQGTLVTVSS
VL: DIQMTQSPSSLSASVGDRVTITCRASQSIVSYLNWYQQKPGKAPKLLIYDASSLQSGVPSRFSGSGSGTDFTLTISSLQPEDFATYYCQQSGSHSITFGQGTKVEIKR
modifications: SMCC-DM1 on primary amines, sites not stated
B9: NOV0692 (antibody, human IgG1, lambda, V domains shown)
VH: QVQLVESGGGLVKPGGSLRLSCAASGFTFSRYWMDWVRQAPGKGLEWVGRIKSKANGGITDYAAPVKGRFTISRDDSKNTLYLQMNSLKTEDTAVYYCARGMTFLGIWGQGTLVTVSS
VL: DIELTQPPSVSVSPGQTASITCSGDSIGSKYAQWYQQKPGQAPVLVIYYNSERPSGIPERFSGSNSGNTATLTISGTQAEDEADYYCQSWDGQSTIRVFGGGTKLTVLG

Key:
human CDH6 on cells [1] = molecular target: T1, human CDH6 on cells; assay: cell-based or functional assay
human CDH6 on cells [2] = molecular target: T1, human CDH6 on cells; assay: cell-based or functional assay; remark: listed apart in the source
hCDH6aa54-615 APPavi [3] = molecular target: T2, hCDH6aa54-615 APPavi; assay: SPR binning
hCDH6aa54-615 APPavi [4] = molecular target: T2, hCDH6aa54-615 APPavi; assay: SPR binning; remark: listed apart in the source
hCDH6aa54-615 APPavi [5] = molecular target: T2, hCDH6aa54-615 APPavi; assay: SPR binning; remark: listed apart in the source
hCDH6aa54-615 APPavi [6] = molecular target: T2, hCDH6aa54-615 APPavi; assay: SPR binning; remark: listed apart in the source
hCDH6aa54-615 APPavi [7] = molecular target: T2, hCDH6aa54-615 APPavi; assay: SPR binning; remark: listed apart in the source
hCDH6aa54-615 APPavi [8] = molecular target: T2, hCDH6aa54-615 APPavi; assay: SPR binning; remark: listed apart in the source
hCDH6aa54-615 APPavi [9] = molecular target: T2, hCDH6aa54-615 APPavi; assay: SPR binning; remark: listed apart in the source

Binder | percent inhibition at 1.22 nM ADC, JHOS4 cells (human CDH6 on cells [1]) [%] | percent inhibition at 1.22 nM ADC, KNS42 cells (human CDH6 on cells [1]) [%] | percent inhibition at 1.22 nM ADC, NCIH661 cells (human CDH6 on cells [1]) [%] | percent inhibition at 1.22 nM ADC, OVCAR3 cells (human CDH6 on cells [1]) [%] | percent inhibition at 1.22 nM ADC, SNU8 cells (human CDH6 on cells [1]) [%] | Amax (%), inhibition of proliferation, OVCAR3 cells (human CDH6 on cells [2]) [%] | Amax (%), inhibition of proliferation, OVCAR8 (engineered CDH6+) cells (human CDH6 on cells [2]) [%] | IP [nM], inhibition of proliferation, OVCAR3 cells (human CDH6 on cells [2]) [nM] | IP [nM], inhibition of proliferation, OVCAR8 (engineered CDH6+) cells (human CDH6 on cells [2]) [nM] | response of secondary antibody on primary antibody-CDH6 complex (hCDH6aa54-615 APPavi [3]) | response of secondary antibody on primary antibody-CDH6 complex (hCDH6aa54-615 APPavi [4]) | response of secondary antibody on primary antibody-CDH6 complex (hCDH6aa54-615 APPavi [5]) | response of secondary antibody on primary antibody-CDH6 complex (hCDH6aa54-615 APPavi [6]) | response of secondary antibody on primary antibody-CDH6 complex (hCDH6aa54-615 APPavi [7]) | response of secondary antibody on primary antibody-CDH6 complex (hCDH6aa54-615 APPavi [8]) | response of secondary antibody on primary antibody-CDH6 complex (hCDH6aa54-615 APPavi [9])
B1 | -5.03 | 3.5 | 2.51 | -3.8 | 3.35 |  |  |  |  |  |  |  |  |  |  | 
B2 | 43.5 | 57 | 1.94 | 80.7 | 3.56 |  |  |  |  |  |  |  |  |  |  | 
B3 |  |  |  |  |  | 88 | 85 | 0.01 | 0.018 |  |  |  |  |  |  | 
B4 |  |  |  |  |  |  |  |  |  | 25.4 | 30.9 | 22.4 | 51.5 | 16.5 | 36.7 | 17.8
B5 |  |  |  |  |  |  |  |  |  | 18.7 | 36.9 | 26.7 | 61.6 | 8.59 | 56.6 | 30.1
B6 | 67.6 | 56.8 | 32.5 | 87.6 | 31.4 | 88 | 95 | 0.065 | 0.015 |  |  |  |  |  |  | 
B7 |  |  |  |  |  | 88 | 84 | 0.008 | 0.012 |  |  |  |  |  |  | 
B8 | 27.2 | 41 | -9.87 | 76 | 3.18 |  |  |  |  |  |  |  |  |  |  | 
B9 |  |  |  |  |  |  |  |  |  | -2.84 | 17.9 | 14.1 | 35.5 | 7.83 |  | 23.2
